Tests used:
LRRK2 = biological target: T1, LRRK2 (Rattus norvegicus, UniProt F1LNJ1); assay: 10-day oral dosing study in rats, pT73-Rab10 and pS935-LRRK2 western blot; assay type: in vivo; conditions: for pT73-Rab10, Brain / pT73-Rab10, Lung / pS935-LRRK2, Brain / pS935-LRRK2, Lung: rats, daily oral 10 days, mean with SEM; for pT73-Rab10, Brain / pT73-Rab10, Lung: normalized to actin and vehicle control group; for pS935-LRRK2, Brain / pS935-LRRK2, Lung: normalized to vinculin and vehicle control group
T1 construct: from tissue; host or cells: rat brain and lung (in vivo dosing)
Experimental: Dose-dependent inhibition of pT73-Rab10 was tested in a 10-day oral dosing study in rats. Rats were dosed daily with the LRRK2 Inhibitor B at a dose of 10 mg/kg, 30 mg/kg, or 45 mg/kg. Tissues (brain and lung) were harvested, homogenized and analyzed by western blot. […] Signals from dosed groups were normalized to vehicle control group. Data were presented as mean with SEM.

[1] = biological target: T2, phosphorylated Rab10 in lysates of HEK cells overexpressing LRRK2 (Homo sapiens, UniProt P61026); assay: Sandwich ELISA (diagnostic), HEK cells overexpressing LRRK2; assay type: binding; conditions: for Sandwich ELISA (diagnostic), Ratio: DMSO / LRRK2 inhibitor A RLU; for Sandwich ELISA (diagnostic) HEK cells overexpressing LRRK2, DMSO (RLU mean ± SD): DMSO treated cells; for Sandwich ELISA (diagnostic) HEK cells overexpressing LRRK2, LRRK2 inhibitor A (RLU mean ± SD): cells treated with LRRK2 inhibitor A
T2 construct: expressed in transfected cells; host or cells: HEK cells overexpressing LRRK2
T2 sequence (P61026 1-200): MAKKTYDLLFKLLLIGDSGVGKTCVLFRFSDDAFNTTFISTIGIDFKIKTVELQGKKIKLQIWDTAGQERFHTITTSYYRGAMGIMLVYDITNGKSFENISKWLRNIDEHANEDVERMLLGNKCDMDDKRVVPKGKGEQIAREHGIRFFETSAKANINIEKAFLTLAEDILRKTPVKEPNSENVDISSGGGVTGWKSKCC
Experimental: Sandwich ELISA (Diagnostic) with Anti-Phospho-Rab10 Antibody as the Capture Antibody:
ELISA plates were prepared by coating white Nunc MaxiSorp 384 well plates (Thermo Fisher #460372/Sigma #P6491) with capture antibody for 1 hour at room temperature on a shaking platform. The capture antibody was purified anti-phospho-Rab10 clone 19-4 diluted to 1 ug/mL in carbonate-bicarbonate buffer, and 15 uL/well of coating solution was added to the plate before incubation. Plates were then washed 3× with TBST on a BioTek plate washer. For all subsequent blocking/incubation steps, Pierce Starting Block T20 (TBS) was used (Thermo Fisher #37543). Plates were blocked […] in this solution using 80 uL/well and washed 3× as before. Afterwards samples of cell lysates were added (neat with no dilution) using 30 uL/well and incubated 1 hour at room temperature on a shaking platform. After another 3× wash detection antibody (Creative Diagnostics DCABH 13141, or Abcam, ab104859, 2 ug/mL) was added using 30 uL/well. After 60 minute incubation at room temperature and washing 3×, the secondary anti-species conjugate was added (anti-rabbit HRP antibody (Jackson ImmunoResearch 111-035-144) diluted 1:20000 in assay diluent) at 30 uL/well. After a 60 minute incubation, plates were washed 3× as before. The HRP substrate (Supersignal ELISA Femto HRP substrate—Thermo Fisher #37075) was prepared during this time by mixing both components and equilibrating to room temperature. 50 uL/well of substrate was added to plates, which then were covered and briefly incubated for 1-2 minutes on a shaker platform. Afterwards plates were read on the Synergy plate reader to measure relative light units (RLU).
Sandwich ELISA (Diagnostic) with Anti-Rab10 (Total) Antibody as the Capture Antibody:
ELISA plates were prepared by coating white Nunc MaxiSorp 384 well plates (Thermo Fisher #460372/Sigma # P6491) with capture antibody overnight at 4° C. on a shaking platform. The capture antibodies (anti-Rab10 antibody from either Creative Diagnostics, DCABH-13141, or Abcam, ab104859) were diluted to […] (or 1:100 if the concentration not known) in carbonate-bicarbonate buffer, and 15 uL/well of coating solution was added to the plate before incubation. After this plates were washed 3× with TBST on a BioTek plate washer. For all subsequent blocking/incubation steps, Pierce Starting Block (TBS) (no Tween added) was used (Thermo Fisher #37542). Plates were blocked for 1 hour at room temperature in this solution using 80 uL/well and washed 3× as before. Afterwards samples were added (with lysates being diluted 1:20 in the assay diluent) using 30 uL/well and incubated 2 hours at room temperature on a shaking platform. After another 3× wash detection antibodies were added (diluted to 1 ug/mL for purified antibodies or 1:2 for supernatants) using 30 uL/well. After 90 minute incubation at room temperature and washing 3× the secondary anti-species conjugate was added (anti-rabbit HRP antibody (Jackson ImmunoResearch 111-035-144) diluted 1:20000 in assay diluent) at 30 uL/well. After a 45 minute incubation plates were washed 3× as before. The HRP substrate (Supersignal ELISA Femto HRP substrate—Thermo Fisher #37075) was prepared during this time by mixing both components and equilibrating to room temperature. 50 uL/well of substrate was added to plates, which then were covered and briefly incubated for 1-2 minutes on a shaker platform. Afterwards plates were read on the Synergy plate reader to measure relative light units (RLU).

[2] = biological target: T3, endogenous phosphorylated Rab10 in human PBMC (Homo sapiens, UniProt P61026); assay: Western blot of human PBMC with anti-pT73-Rab10 antibodies; assay type: binding; conditions: for detection of endogenous phosphorylated Rab10 signals in human PBMC by western blot: antibody at 1 ug/ml; for Western blot Human PBMC Ratio of DMSO/LRRK2 inhibitor A (mean ± SEM): band intensity normalized with Actin control for each of DMSO and LRRK2 inhibitor A, antibody 1 ug/ml
T3 construct: Strong endogenous phosphorylated Rab10 or phosphorylated Rab8a in human PBMC; host or cells: human PBMC
T3 sequence (P61026 1-200): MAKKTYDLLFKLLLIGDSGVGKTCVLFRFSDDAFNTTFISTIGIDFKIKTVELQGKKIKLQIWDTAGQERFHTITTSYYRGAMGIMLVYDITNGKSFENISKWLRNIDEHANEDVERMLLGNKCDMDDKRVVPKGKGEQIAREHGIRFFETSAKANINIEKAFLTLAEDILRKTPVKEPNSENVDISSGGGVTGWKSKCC

T1 sequence (F1LNJ1 1-2526): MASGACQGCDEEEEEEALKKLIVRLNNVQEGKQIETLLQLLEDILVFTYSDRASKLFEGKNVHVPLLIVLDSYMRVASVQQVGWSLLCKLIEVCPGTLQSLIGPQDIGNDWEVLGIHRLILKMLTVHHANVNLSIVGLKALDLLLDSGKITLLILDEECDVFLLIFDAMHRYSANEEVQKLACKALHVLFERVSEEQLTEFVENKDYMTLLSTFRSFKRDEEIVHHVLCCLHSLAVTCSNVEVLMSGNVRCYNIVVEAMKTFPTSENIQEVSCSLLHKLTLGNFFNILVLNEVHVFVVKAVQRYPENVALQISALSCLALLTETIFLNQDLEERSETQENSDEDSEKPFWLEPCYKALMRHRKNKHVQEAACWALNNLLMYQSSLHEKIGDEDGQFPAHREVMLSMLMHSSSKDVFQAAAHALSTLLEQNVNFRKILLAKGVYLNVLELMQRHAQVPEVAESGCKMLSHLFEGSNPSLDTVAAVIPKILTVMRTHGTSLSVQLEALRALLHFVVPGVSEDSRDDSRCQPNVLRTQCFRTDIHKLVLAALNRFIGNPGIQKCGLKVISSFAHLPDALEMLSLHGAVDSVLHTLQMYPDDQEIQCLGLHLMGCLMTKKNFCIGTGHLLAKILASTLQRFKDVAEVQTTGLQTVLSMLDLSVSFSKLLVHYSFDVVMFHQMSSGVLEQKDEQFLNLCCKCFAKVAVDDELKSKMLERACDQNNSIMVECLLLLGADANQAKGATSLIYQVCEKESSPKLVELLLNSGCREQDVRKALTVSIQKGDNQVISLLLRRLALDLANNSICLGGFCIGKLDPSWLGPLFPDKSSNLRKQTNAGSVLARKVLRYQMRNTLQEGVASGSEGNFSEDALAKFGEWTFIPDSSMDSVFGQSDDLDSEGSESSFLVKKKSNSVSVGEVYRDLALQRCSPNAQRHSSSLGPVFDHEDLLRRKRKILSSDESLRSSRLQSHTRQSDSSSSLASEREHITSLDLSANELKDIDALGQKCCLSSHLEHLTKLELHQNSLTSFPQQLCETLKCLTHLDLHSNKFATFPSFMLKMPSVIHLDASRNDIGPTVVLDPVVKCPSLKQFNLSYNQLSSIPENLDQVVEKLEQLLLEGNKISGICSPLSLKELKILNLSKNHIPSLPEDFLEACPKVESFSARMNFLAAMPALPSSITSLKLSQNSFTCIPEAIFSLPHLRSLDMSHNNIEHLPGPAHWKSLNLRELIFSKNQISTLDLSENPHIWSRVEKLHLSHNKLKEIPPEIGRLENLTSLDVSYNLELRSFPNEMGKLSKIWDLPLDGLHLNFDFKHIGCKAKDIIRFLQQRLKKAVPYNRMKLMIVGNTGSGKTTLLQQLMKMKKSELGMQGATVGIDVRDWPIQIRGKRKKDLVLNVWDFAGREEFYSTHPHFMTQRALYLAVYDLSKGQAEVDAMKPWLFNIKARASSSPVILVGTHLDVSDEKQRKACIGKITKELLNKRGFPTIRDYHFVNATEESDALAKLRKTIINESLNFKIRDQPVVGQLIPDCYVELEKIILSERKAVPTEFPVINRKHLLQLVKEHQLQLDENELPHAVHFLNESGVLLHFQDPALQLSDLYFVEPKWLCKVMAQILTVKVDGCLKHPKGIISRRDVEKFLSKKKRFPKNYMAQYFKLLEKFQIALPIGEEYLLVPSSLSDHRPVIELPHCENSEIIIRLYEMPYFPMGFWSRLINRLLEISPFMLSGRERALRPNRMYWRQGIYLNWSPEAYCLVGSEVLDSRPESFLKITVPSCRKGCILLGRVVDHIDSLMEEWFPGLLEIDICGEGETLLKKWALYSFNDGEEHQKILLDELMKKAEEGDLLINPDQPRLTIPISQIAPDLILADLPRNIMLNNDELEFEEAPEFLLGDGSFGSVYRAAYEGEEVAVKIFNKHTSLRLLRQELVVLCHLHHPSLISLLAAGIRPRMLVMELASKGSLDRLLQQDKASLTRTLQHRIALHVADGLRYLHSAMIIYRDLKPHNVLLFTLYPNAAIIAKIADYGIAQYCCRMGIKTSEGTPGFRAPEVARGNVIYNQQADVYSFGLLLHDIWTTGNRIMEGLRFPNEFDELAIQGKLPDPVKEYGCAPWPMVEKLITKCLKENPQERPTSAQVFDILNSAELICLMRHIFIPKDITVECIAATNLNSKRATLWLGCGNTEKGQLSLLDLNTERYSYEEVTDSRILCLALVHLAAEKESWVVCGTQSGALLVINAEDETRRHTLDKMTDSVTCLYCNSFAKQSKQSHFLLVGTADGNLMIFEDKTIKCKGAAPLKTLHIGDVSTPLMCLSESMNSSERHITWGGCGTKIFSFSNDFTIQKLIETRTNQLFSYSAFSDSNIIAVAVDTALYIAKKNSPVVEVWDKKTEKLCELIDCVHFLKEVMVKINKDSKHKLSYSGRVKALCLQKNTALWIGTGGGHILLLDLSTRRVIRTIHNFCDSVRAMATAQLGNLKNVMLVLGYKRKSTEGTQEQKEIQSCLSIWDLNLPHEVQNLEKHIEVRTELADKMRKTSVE

CNc1nc(Nc2cn(C(C)(C)C#N)nc2C)ncc1C(F)(F)F [LRRK2 Inhibitor B, 2-methyl-2-(3-methyl-4-(4-(methylamino)-5-(trifluoromethyl)pyrimidin-2-ylamino)-1H-pyrazol-1-yl)propanenitrile]
dephosphorylation of pS935-LRRK2 and pT73-Rab10 (LRRK2; rats, 10, 30 or 45 mg/kg daily oral, 10 days, brain and lung): comparable dose-dependent dephosphorylation | pT73-Rab10, Brain (LRRK2; High dose (doses 10, 30, 45 mg/kg), N = 5): 0.225 ± 0.0394 | pT73-Rab10, Lung (LRRK2; High dose): 0.109 ± 0.0126 | pS935-LRRK2, Brain (LRRK2; High dose): 0.04 ± 0.016 | pS935-LRRK2, Lung (LRRK2; High dose): 0.076 ± 0.022 | pT73-Rab10, Brain (LRRK2; Low dose (doses 10, 30, 45 mg/kg), N = 6): 0.676 ± 0.102 | pT73-Rab10, Lung (LRRK2; Low dose): 0.25 ± 0.0126 | pS935-LRRK2, Brain (LRRK2; Low dose): 0.693 ± 0.164 | pS935-LRRK2, Lung (LRRK2; Low dose): 0.295 ± 0.026 | pT73-Rab10, Brain (LRRK2; Medium dose (doses 10, 30, 45 mg/kg), N = 6): 0.268 ± 0.0745 | pT73-Rab10, Lung (LRRK2; Medium dose): 0.133 ± 0.0137 | pS935-LRRK2, Brain (LRRK2; Medium dose): 0.086 ± 0.021 | pS935-LRRK2, Lung (LRRK2; Medium dose): 0.094 ± 0.012

B1: Clone 133-2: anti-phosphorylated (pT73) Rab10 rabbit monoclonal antibody; VH SEQ ID NO:31, VL SEQ ID NO:35 (antibody, V domains shown)
VH: METGLRWLLLVAVLKGVQCQEQLVESGGGLVQPEGSLTLTCKASGFDLSSHYYMCWVRQAPGKGLEWIVCISNGSGNTYYASWAKGRFTISKTSSTTVTLHMTSLTVADTATYFCARNFGSNYGDAFDPWGPGTLVTVSS
VL: MDTRAPTQLLGLLLLWLPGATFAQVLTQTPSPVSAAVGGTVTISCQSSKSVYSNNYLSWYQQKPGQPPKLLIYSASILASGVPSRFSGSGSGTQFTLTISGVQCDDAATYYCQGSYAGSGWYIGFGGGTEVVVK
Sandwich ELISA (diagnostic), Ratio [1]: 2.25 | Sandwich ELISA (diagnostic) HEK cells overexpressing LRRK2, DMSO (RLU mean ± SD) [1]: 18605 ± 4874 RLU | Sandwich ELISA (diagnostic) HEK cells overexpressing LRRK2, LRRK2 inhibitor A (RLU mean ± SD) [1]: 8265 ± 1428 RLU

B2: Clone 5: anti-phosphorylated (pT73) Rab10 rabbit monoclonal antibody; VH SEQ ID NO:1, VL SEQ ID NO:5 (antibody, V domains shown)
VH: METGLRWLLLVAVLKGVQCQSVEESGGRLVTPGTPLTLTCTVSGFSLSSYAMVWVRQAPGKGLEYIGLISRSGVTYYATWAKGRFTISKASTTVDLKIASPTTGDTATYFCVRDYDINGWSGFTIWGPGTLVTVSA
VL: MDTRAPTQLLGLLLWLPGAICDPVMTQTPSSTSAAVGGTVTINCQSSQSVYGNNYFSWYQQKPGQPPKLLIYKASTLASGVPSRFKGSGSGTQFTLTISDLECDDAATYYCAGAASDTRFFGGGTELVVN
detection of endogenous phosphorylated Rab10 signals in human PBMC by western blot [2]: detected endogenous phosphorylated Rab signals | Western blot Human PBMC Ratio of DMSO/LRRK2 inhibitor A (mean ± SEM) [2]: 3.45 ± 0.53 | Sandwich ELISA (diagnostic), Ratio [1]: 23.63 | Sandwich ELISA (diagnostic) HEK cells overexpressing LRRK2, DMSO (RLU mean ± SD) [1]: 85175 ± 16412 RLU | Sandwich ELISA (diagnostic) HEK cells overexpressing LRRK2, LRRK2 inhibitor A (RLU mean ± SD) [1]: 3604 ± 1165 RLU

B3: Clone 247-8: anti-phosphorylated (pT73) Rab10 rabbit monoclonal antibody; VH SEQ ID NO:47, VL SEQ ID NO:51 (antibody, V domains shown)
VH: METGLRWLLLVAVLKGVQCQSVEESGGRLVTPGTPLTLTCTVSGFSLSSYAMGWVRQAPGKGLEYIGIISRSGITYYATWAKGRFTISKASTTVDLRIASPTTEDTATFFCVRDYDSSGWSGFNIWGPGTLVTVSL
VL: MDTRAPTQLLGLLLLWLPGAICDPVMTQTPSSTSAAVGGTVTINCQSSQSVYGNNYLSWFQQKPGQPPKLLIYKASTLASGVPSRFKGSGSGTQFTLTISGVQCDDAATYYCAGAYSDNRVFGGGTEVVVK
Sandwich ELISA (diagnostic), Ratio [1]: 7.20 | Sandwich ELISA (diagnostic) HEK cells overexpressing LRRK2, DMSO (RLU mean ± SD) [1]: 13096 ± 1715 RLU | Sandwich ELISA (diagnostic) HEK cells overexpressing LRRK2, LRRK2 inhibitor A (RLU mean ± SD) [1]: 1820 ± 276 RLU

B4: Clone 19: anti-phosphorylated (pT73) Rab10 rabbit monoclonal antibody; VH SEQ ID NO:11, VL SEQ ID NO:13 (antibody, V domains shown)
VH: METGLRWLLLVAVLKGVQCQSVEESGGRLVTPGTPLTLTCTVSGFSLSSYAMVWVRQAPGKGLEYIGLISRSGVTYYATWAKGRFTISKASTTVDLKIASPTTGDTATYFCVRDYDSAGWSGFTIWGPGTLVTVSA
VL: MDTRAPTQLLGLLLLWLPGAICDPVMTQTPSSTSAAVGGTVTINCQSSQSVYGNNYLSWYQQKPGQPPKLLIYKASTLASGVPSRSVGSGSGTQFTLTISDLECDDAATYYCAGAASDTRFFGGGTELVVN
detection of endogenous phosphorylated Rab10 signals in human PBMC by western blot [2]: detected endogenous phosphorylated Rab signals | Western blot Human PBMC Ratio of DMSO/LRRK2 inhibitor A (mean ± SEM) [2]: 3.39 ± 0.89

B5: Clone 256-6: anti-phosphorylated (pT73) Rab10 rabbit monoclonal antibody; VH SEQ ID NO:53, VL SEQ ID NO:56 (antibody, V domains shown)
VH: METGLRWLLLVAVLKGVQCQSVEESGGRLVTPGTPLTLTCTVSGFSLSNYAMVWVRQAPGKGLEYIGLISRSGVTYYATWAKGRFTISKASTTVDLKIASPTTGDTATYFCVRDYDANGWSGFTIWGPGTLVTVSA
VL: MDTRAPTQLLGLLLLWLPGAICDPVMTQTPSSTSAAVGGTVTINCQSSQSVYGNNYLSWYQQKPGQPPKLLIYKASTLASGVPSRFKGSGSGTQFTLTISDLDCDDAATYYCAGAASDTRFFGGGTEVVVK
Sandwich ELISA (diagnostic), Ratio [1]: 77.37 | Sandwich ELISA (diagnostic) HEK cells overexpressing LRRK2, DMSO (RLU mean ± SD) [1]: 212085 ± 27432 RLU | Sandwich ELISA (diagnostic) HEK cells overexpressing LRRK2, LRRK2 inhibitor A (RLU mean ± SD) [1]: 2741 ± 309 RLU

B6: Clone 153-2: anti-phosphorylated (pT73) Rab10 rabbit monoclonal antibody; VH SEQ ID NO:39, VL SEQ ID NO:43 (antibody, V domains shown)
VH: METGLRWLLLVAVLKGVQCQSVEESGGRLVTPGTPLTLTCTASGFSLSTYYMSWVRQAPGKGLEWIGIINTGGIVHYANWVRGRFTISKTSTTVDLRITSPTAEDTATYFCARAYSADRLDLWGQGTLVTVSS
VL: MDTRAPTQLLGLLLLWLPGATFAAVLTQTPSPVSAAVGGTVTISCQSSESVYGNNRLSWYQQKPGQPPKLLMYYASTLASGVPSRFRGSGSGTQFTLTISDVQCDDAASYYCLGGYKRDSNNAFGGGTEVVVK
Sandwich ELISA (diagnostic), Ratio [1]: 141.26 | Sandwich ELISA (diagnostic) HEK cells overexpressing LRRK2, DMSO (RLU mean ± SD) [1]: 596606 ± 80346 RLU | Sandwich ELISA (diagnostic) HEK cells overexpressing LRRK2, LRRK2 inhibitor A (RLU mean ± SD) [1]: 4223 ± 293 RLU
